Source: the supplement of paper PMC9170038

System: MS2 coat protein
Assay: apparent KD of MS2 coat protein; designed switch direction (-1 OFF switch, 1 ON switch): -1; higher = weaker reporter binding
Method in brief: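 Designed RNA switches with common flanks were transcribed on Illumina chips by stalled E. coli RNA polymerase and titrated with SNAP-549-labelled MS2 coat protein, from 0.7 or 1.5 nM doubling to 3 µM, in Tris-HCl pH 7.5 buffer with KCl, MgCl2, BSA, DTT, tRNA and Tween-20. Steps lasted 0.8–1.5 h (lowest) to 10–20 min (highest). Titrations ran without input, with 200 uM small-molecule ligand, or with an oligonucleotide input. Normalised cluster fluorescence was curve-fitted, and apparent KD is the per-design median over clusters.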

[1] = input ligand: microRNA oligo, concentration not stated
[2] = Eterna round: R95, input ligand: microRNA oligo, concentration not stated
[3] = Eterna round: R95, input ligand: FMN 200 uM
[4] = Eterna round: R95, input ligand: none

| Sequence | apparent KD of MS2 coat protein (input ligand: FMN 200 uM) | apparent KD of MS2 coat protein [1] | apparent KD of MS2 coat protein (input ligand: none) | apparent KD of MS2 coat protein [2] | apparent KD of MS2 coat protein [3] | apparent KD of MS2 coat protein [4] |
| --- | --- | --- | --- | --- | --- | --- |
| UAGAUGGGAGGAUAUACAUAGAUACAGAUUCAUGUAGUGCUACAUGAGGAUCACCCAUGUAGAAGGCCCGUCUU [JL-ex2-2.18 Mayanne mod] (Eterna round: R96, puzzle: Exclusion 2) | 407 nM | 33.2 nM | 37.9 nM |  |  |  |
| AGAUGUACCUAGGAUAUCCGUCGAAUUGGACUAGGAGAAGGAGGUACAUGAGGAUCACCCAUGUAUGACUCCUG [Bemabice] (puzzle: Exclusion 6) |  |  |  | 10.1 nM |  |  |
| GUCCUACAUGAGGAUCACCCAUGUGAGGAUAUGCGAUUAGCUGCUAGGUAGUUAGUAUGUAGAAGGCGCAUGAA [EX1 #77] (Eterna round: R97, puzzle: Exclusion 1) | 15.9 nM |  | 14.6 nM |  |  |  |
| AGUAGAUCUACGCUUGCGUGGAUCUGCAAUGCAGGUGUUACAUGAGGAUCACCCAUGUCCUCAUUUGUUCGUCUUAG [JL turnoff v2 99.09] (puzzle: Sensor v3, turn-off variant 2) |  |  |  | 322 nM | 568 nM | 395 nM |
| UAUUUUAAAGUAAGGAUAUCGGUCCGAAAGGACUACGAGAAGGUACAUGAGGAUCACCCAUGUGAAAUAAGAAU [Mod of Zala 23 - Jieux - Brourd's Mod of Exclusion 4] (Eterna round: R97, puzzle: Brourd's mod of Exclusion 4) | 20.8 nM |  | 15 nM |  |  |  |
| CCAGCGUGUGUGAGGAUAUGCUGGUCCUUGGAUCAGCAGAAGGCACAUGAGGAUCACCCAUGUGAGAGCGUUGG [JL bmx4 3.36] (puzzle: Brourd's mod of Exclusion 4) |  |  |  | 20.7 nM |  |  |
| CCCUCACAUGAGGAUCACCCAUGUCAGGAUAUGCGCGGCCAAAAGGGCUGCUAAGGCAGCAGAAGGGACGUGAA [Eninored] (puzzle: Exclusion 1) |  |  |  | 14.4 nM |  |  |
| GUUACACAUGAGGAUCACCCAUGUGAGGAUAUGGAUUCGUUGCAAGUAGGCGAUGGAUCCAGAAGGCGCGUGAG [JR_Ex1_Sub080] (Eterna round: R97, puzzle: Exclusion 1) | 58.7 nM |  | 50.5 nM |  |  |  |
| CCAUCUCUAGUAGGAUAUGUCGGAUAUGUUGUUGAGGUUCACCCAACGACGUCAAUGACAGAAGGACAGAAGGACUCUCGAUGC [pwkr exNG2 2xFMN 1xF5.6] (Eterna round: R96, puzzle: Exclusion NG 2) | 114 nM | 463 nM | 183 nM |  |  |  |
| CGGUACUGAGGAUAUACAUGAGGAUCACCCAUGUGUUCCAGCUAGCGUACUGGCAUUAGUAGAAGGCGGUGCUG [JL-ex3-3.17 Brourd mod] (puzzle: Exclusion 3) |  |  |  | 12.8 nM | 31.4 nM | 14.3 nM |
| AGUUGGCGAGGAUAUACAUGAGGAUCACCCAUGUGAGAGAAAAAAGUGAGGAAGAAAAGUAGAAGGCGCUGACU [salish99_ex3_r3_039] (puzzle: Exclusion 3) |  |  |  | 46.3 nM | 313 nM | 60.4 nM |
| GGUACCUCUGUUAGGAUAUUGUUAGUGUGAAGCGACGAGAAGGAACAUGAGGAUCACCCAUGUUGCAUCGUAAA [Eternabot (L2) Solution 54] (Eterna round: R97, puzzle: Brourd's mod of Exclusion 4) | 152 nM |  | 27.1 nM |  |  |  |
| UUUUAACAUGAGGAUCACCCAUGUGAGGAUAUCGAAAUUUAUAUUAAUAUUAUUUAAUCGAGAAGGCACAUUUU [JMF 44] (puzzle: Exclusion 1) |  |  |  | 100 nM |  |  |
| GCGCUGUCAGGAUAUGUGUGUGUGUGUGAAAGCGCGCGCGCGCAGAAGGGACAUGAGGAUCACCCAUGUGGUGU [-31.2, -30.2 kcal, A 20%, 6bis-6bis] (Eterna round: R97, puzzle: Exclusion 4) | 78.7 nM |  | 265 nM |  |  |  |
| GCAGCUAACACAGAUAUGUGGACAUGAGGAUCACCCAUGUCACAGGAUAUGGACUGGAUUACAGUCCAGAAGGGUGAAUGCUGC [Zipper Style 5] (Eterna round: R96, puzzle: Exclusion NG 3) | 8.25 nM | 10.8 nM | 14.2 nM |  |  |  |
| GGCAUGUAAGGAUAUGCCACCGAGUGCUUUGCGCUCGGUAAGCAGAAGGUACAUGAGGAUCACCCAUGUGAUAA [jl-ex4-4.55 ViennaUCT mod] (Eterna round: R97, puzzle: Exclusion 4) | 132 nM |  | 660 nM |  |  |  |
| AGUAUCUGAGGAUAUUGAGUUAUCUACAUGAGGAUCACCCAUGUUGUAUGUGUAGAAGCACGAGAAGGCAGAUACA [Eternabot (L2) Solution 1] (Eterna round: R97, puzzle: Exclusion 5) | 395 nM |  | 102 nM |  |  |  |

| Sequence | apparent KD of MS2 coat protein (input ligand: FMN 200 uM) | apparent KD of MS2 coat protein [1] | apparent KD of MS2 coat protein (input ligand: none) | apparent KD of MS2 coat protein [2] | apparent KD of MS2 coat protein [3] | apparent KD of MS2 coat protein [4] |
| --- | --- | --- | --- | --- | --- | --- |
| UUUAAUUUUUUUUUUUUACAAGCUUUUUGCUCGUCUUAUACAUGAGGAUCACCCAUGUGGGUAGAGGGUAAAUUAUC [JMF 82] (puzzle: Sensor v3, turn-off variant 2) |  |  |  | 38.9 nM | 15.1 nM | 14.9 nM |
| AUGCUCCGUGUAGGAUAUCGCCGCAUCACUCGGCGAGAAGGACAUGAGGAUCACCCAUGUAUGUUAUUAUCACGUGUGGCGCGC [Design 44] (Eterna round: R96, puzzle: Exclusion NG 1) | 52.3 nM | 16.7 nM | 25.3 nM |  |  |  |
| ACAUGAGGAUCACCCAUGUGCACGUAAUGGCUCAUGUAGAGUGAGGAUAUGCGUGGCGAACGCGCGCAGAAGGCACAAGACUGG [Deportation 18 - Jieux - Exclusion NG 3] (Eterna round: R96, puzzle: Exclusion NG 3) | 129 nM | 88.8 nM | 99.7 nM |  |  |  |
| ACUGCCACAGGAUAUACGAAACUCUUGGGUUCCGCCGUGUGACAUGAGGAUCACCCAUGUAGAAGGGUGGCUUA [Atbiinza] (puzzle: Exclusion 2) |  |  |  | 398 nM |  |  |
| AUAAAAUGCCAAGGAUAUCGGAAAGGAAGUGUACGAGAAGGUGGAGAUCCUAUACAUGAGGAUCACCCAUGUAUCAAGCUUGGG [PowerStrip EXNG 1.10] (Eterna round: R96, puzzle: Exclusion NG 1) | 692 nM | 510 nM | 760 nM |  |  |  |
| AAGAAACAUGAGGAUCACCCAUGUGAGGAUAUGGCCCGCCCGGCGUAAGCAAAAUAAAUCAGAAGGCACAAAGG [salish99_ex1_r4_008] (Eterna round: R97, puzzle: Exclusion 1) | 39.5 nM |  | 47.2 nM |  |  |  |
| UCUCAGUCAGGAUAUCGUUAAUUUAAUUGUUUGUAUUAGUUCGAGAAGGGACAUGAGGAUCACCCAUGUACUCU [Ex4 #18] (Eterna round: R97, puzzle: Exclusion 4) | 29.8 nM |  | 18.8 nM |  |  |  |
| CUUUUGUGAGGAUAUCAGUAGUAAUAAUAUAAAAUUACUACUGAGAAGGCACAUGAGGAUCACCCAUGUUCCUC [salish99_ex3_r3_102] (puzzle: Exclusion 4) |  |  |  | 36.3 nM |  |  |
| AACCUGAGGCAAAGCUUUAGGUGUACAUGAGGAUCACCCAUGUAGGAUAUGGUAGGCAAAGCUUACCAGAAGGACAUUAUGAUA [Mat - Exclusion NG 3 - Mod of JL - D52] (Eterna round: R96, puzzle: Exclusion NG 3) | 66.9 nM | 44 nM | 53.1 nM |  |  |  |
| GGUCGGCGAGGAUAUACAUGAGGAUCACCCAUGUGAUUUAGUGCACGCGUACGUGUACGUAGAAGGCGCUGACG [JL-ex3-3.27 salish99 mod] (puzzle: Exclusion 3) |  |  |  | 14 nM | 127 nM | 11.3 nM |
| CUUUUGUGAGGAUAUUAGUAGUAAAUAAAUAAAAUUACUACUGAGAAGGCACAUGAGGAUCACCCAUGUUCUUC [salish99_ex4_r3_066] (puzzle: Exclusion 4) |  |  |  | 18.8 nM |  |  |
| AGAUGCAGAGUAAGGAUAUGGUAGGCUUGCGCAAACCAGAAGGUACAUGAGGAUCACCCAUGUAAGCAUCAAGU [eternacac ex4r4 #5] (Eterna round: R97, puzzle: Brourd's mod of Exclusion 4) | 16 nM |  | 15.1 nM |  |  |  |
| CCGGUAAAGGAGGAUAUAGGAGUCGAUAGACACCUAGAAGGCCUGACAUGAGGAUCACCCAUGUGUCCUUCCGG [Fiskers Ex 6 - 94] (puzzle: Exclusion 6) |  |  |  | 16.8 nM |  |  |
| AGAAGUAGUAACCGAUCCUACAUGAGGAUCACCCAUGUAGCUAGACGUGCACGCGAUGCUCGUCAGACUACCAGAUG [salish99_TOv1_r3_027] (puzzle: Sensor v3, turn-off variant 1) |  |  |  | 136 nM | 171 nM | 171 nM |
| AGGUUGUGAGGAUAUUAGUUAUAUGAUUGGAGGAGUAUGGCUGAGAAGGCACAUGAGGAUCACCCAUGUAGAUC [JR_Ex4_Sub048] (Eterna round: R97, puzzle: Exclusion 4) | 555 nM |  | 162 nM |  |  |  |
| CCGAGGAAGCGGUCCUAUGACAUGAGGAUCACCCAUGUACCUCGCUACGAGCUUUUUGCUCGUCUUAUAAUUCUCGG [Mat - Sensor v3 - turn-off var 1 - JL Mod - D28] (puzzle: Sensor v3, turn-off variant 1) |  |  |  | 65.5 nM | 24.2 nM |  |
| UAUUAGCAAGCAACUGGGUACAUGAGGAUCACCCAUGUGCUCGUCUUAUAAGGUACUGUGACGAAAUUCACGGUACC [mod--Eli13] (Eterna round: R97, puzzle: Sensor, turn-off variant 1) | 21.1 nM |  | 18.6 nM |  |  |  |
